This is an account of results in patent US20250376519A1 (JIANGSU HENGRUI PHARMACEUTICALS, published 2025).

Assay [1] addresses T1, human DLL3 on cells (human, UniProt Q9NYJ7 27-618).
T1 construct: Endogenous on H1184 and SHP77; Cell line is named under assay; also called H1184; DLL3/H82
T1 sequence: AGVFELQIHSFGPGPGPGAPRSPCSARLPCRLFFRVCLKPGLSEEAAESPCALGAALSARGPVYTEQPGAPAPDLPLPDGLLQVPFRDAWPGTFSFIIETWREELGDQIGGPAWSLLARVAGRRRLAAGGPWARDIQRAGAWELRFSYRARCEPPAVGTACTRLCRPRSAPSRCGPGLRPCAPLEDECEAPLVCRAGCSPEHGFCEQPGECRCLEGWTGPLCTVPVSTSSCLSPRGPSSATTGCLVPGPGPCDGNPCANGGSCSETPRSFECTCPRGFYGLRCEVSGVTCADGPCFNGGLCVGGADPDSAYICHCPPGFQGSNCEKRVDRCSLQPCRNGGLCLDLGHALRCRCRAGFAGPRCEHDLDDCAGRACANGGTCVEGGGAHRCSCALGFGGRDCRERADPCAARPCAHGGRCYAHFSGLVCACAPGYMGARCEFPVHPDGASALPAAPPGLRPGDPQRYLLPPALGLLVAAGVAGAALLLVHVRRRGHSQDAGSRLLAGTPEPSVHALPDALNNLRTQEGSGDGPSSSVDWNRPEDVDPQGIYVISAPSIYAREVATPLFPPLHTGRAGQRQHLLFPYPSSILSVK
Put plainly: flow cytometry, DLL3/H82 cells. Also noted: key to Emax: geometric mean fluorescence intensity (flow cytometry). On the procedure:
(§1) The plates were centrifuged at 300 g for 5 min, and the supernatant was removed. Different concentrations of test antibodies were added at 100 μL/well. The plates were incubated in the dark in a refrigerator at 4° C. for 1 h. After 3 centrifugal washes at 300 g, working concentrations of APC anti-human IgG Fc (BioLegend, 410712) or PE F(ab′)2-goat anti-human IgG (invitrogen, H10104) were added. The plates were incubated in the dark in a refrigerator at 4° C. for 40 min. After 3 centrifugal washes at 300 g, the geometric mean fluorescence intensity was measured on an Invitrogen flow cytometer, and the EC50 values for the binding of the antibodies to DLL3-expressing cells were calculated.
In general terms: A flow cytometer gives signals particle by particle.

Assay [2] concerns the target T2, human DLL3 (ACRO, DLL3-H52H4) (human, UniProt Q9NYJ7 27-492).
T2 construct: Bought
T2 sequence: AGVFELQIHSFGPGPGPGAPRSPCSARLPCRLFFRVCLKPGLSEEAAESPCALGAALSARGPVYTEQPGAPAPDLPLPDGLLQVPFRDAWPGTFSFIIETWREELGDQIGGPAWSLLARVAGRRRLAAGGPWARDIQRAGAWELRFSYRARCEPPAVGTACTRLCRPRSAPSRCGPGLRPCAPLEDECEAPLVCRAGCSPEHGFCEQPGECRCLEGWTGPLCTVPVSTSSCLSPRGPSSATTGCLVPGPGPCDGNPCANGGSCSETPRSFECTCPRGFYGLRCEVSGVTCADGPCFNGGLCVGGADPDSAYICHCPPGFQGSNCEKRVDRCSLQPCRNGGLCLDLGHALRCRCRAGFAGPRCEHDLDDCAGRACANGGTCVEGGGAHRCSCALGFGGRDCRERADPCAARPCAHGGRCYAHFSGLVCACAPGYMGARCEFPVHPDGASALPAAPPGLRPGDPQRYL
Put plainly: SPR Biacore 8K, Ab captured on Protein A. Summed up:
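Antibodies captured on a Protein A chip for 18 s; DLL3 or CD3D&3E antigen flowed 180 s, then 600 s dissociation, with real-time detection. Regeneration used 10 mM glycine-HCl pH 1.5 between cycles. Kinetics were obtained by 1:1 model fitting.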

The target in assay [3] is T1, human DLL3 on cells. Put plainly: flow cytometry, SHP77 cells. The method, then:
as §1

The next assay deals with hIL5 (human, UniProt P05113 20-134). Put plainly: ELISA.
A further assay addresses hTSLP (human, UniProt Q969D9 29-159). Put plainly: ELISA. A general note: ELISA stands for enzyme-linked immunosorbent assay.

B1: hu30L1H5 (antibody, human IgG1, kappa, V domains shown)
VH: EVRLVQSGAEVKKPGASVKVSCKASGYTFTDYYMNWVRQAPGQSLEWMGIINPYTGDTSYNQKFRGRVTLTVDKSASTAYMELSSLRSEDTAVYYCARYHYGPHLEGYFDVWGQGTTVTVSS
VL: DIVMTQSPDSLAVSLGERATINCKASENVGYVSWYQQKPGQPPKLLIYGASNRYTGVPDRFSGSGSGTDFTLTISSLQAEDVAVYYCGQSYSYPLTFGQGTKLEIKR
By EC50 is commonly meant the midpoint of the concentration-response curve. By Kd is commonly meant the concentration at which binding is half-saturated. As usually defined, the koff is the first-order rate constant of dissociation. In general, kon refers to the second-order rate constant of association. In the assay with human DLL3 on cells [1], B1 registered an EC50 of 0.88 nM and an Emax of 6800. In assay [2], this molecule yielded a Kd of 0.952 nM, an off-rate (koff) of 0.00117 s⁻¹ and a kon of 1.23e+06 M⁻¹ s⁻¹. Besides, in the assay with human DLL3 on cells [3], a half-maximal effect (EC50) was put at 6.45 nM and the Emax came out at 1540.

B2: hu30L4H5 (antibody, human IgG1, kappa, V domains shown)
VH: EVRLVQSGAEVKKPGASVKVSCKASGYTFTDYYMNWVRQAPGQSLEWMGIINPYTGDTSYNQKFRGRVTLTVDKSASTAYMELSSLRSEDTAVYYCARYHYGPHLEGYFDVWGQGTTVTVSS
VL: DIQMTQSPSSLSASVGDRVTITCKASENVGYVSWYQQKPGKAPKLLIYGASNRYTGVPSRFSGSGSGTDFTLTISSLQPEDFATYYCGQSYSYPLTFGQGTKLEIKR
In assay [2], B2 gave a Kd of 2.09 nM, a koff of 0.00092 s⁻¹ and a kon of 440000 M⁻¹ s⁻¹. In the assay with human DLL3 on cells [3], the EC50 was 5.44 nM and the Emax turned out to be 1460.

B3: hu30L5H9 (antibody, human IgG1, kappa, V domains shown)
VH: EVRLVQSGAEVKKPGASVKVSCKASGYTFTDYYMNWVRQAPGQSLEWIGIINPYTGDTSYNQKFRGRATLTVDKSASTAYMELSSLRSEDTAVYYCARYHYGPHLEGYFDVWGQGTTVTVSS
VL: DIQMTQSPSSLSASVGDRVTITCKASENVGYVSWYQQKPGKSPKLLIYGASNRYTGVPDRFSGSGSGTDFTLTISSLQPEDFATYYCGQSYSYPLTFGSGTKLEIKR
With B3, in assay [2], the Kd is 2.48 nM, the koff stood at 0.000989 s⁻¹ and the kon is 399000 M⁻¹ s⁻¹. In the assay with human DLL3 on cells [3], this molecule displayed an EC50 of 9.6 nM and an Emax of 1560.

B4: hu30L1H10 (antibody, human IgG1, kappa, V domains shown)
VH: EVRLVQSGAEVKKPGASVKVSCKASGYTFTDYYMNWVRQSHGQSLEWMGIINPYTGDTSYNQKFRGRVTLTVDKSASTAYMELSSLRSEDTAVYYCARYHYGPHLEGYFDVWGQGTTVTVSS
VL: DIVMTQSPDSLAVSLGERATINCKASENVGYVSWYQQKPGQPPKLLIYGASNRYTGVPDRFSGSGSGTDFTLTISSLQAEDVAVYYCGQSYSYPLTFGQGTKLEIKR
For B4, in assay [2], the Kd was 2.19 nM, the koff turned out to be 0.000964 s⁻¹ and the kon turned out to be 440000 M⁻¹ s⁻¹. In the assay with human DLL3 on cells [3], this molecule came in with an EC50 of 7.99 nM and an Emax of 1630.

B5: hu30L5H5 (antibody, human IgG1, kappa, V domains shown)
VH: EVRLVQSGAEVKKPGASVKVSCKASGYTFTDYYMNWVRQAPGQSLEWMGIINPYTGDTSYNQKFRGRVTLTVDKSASTAYMELSSLRSEDTAVYYCARYHYGPHLEGYFDVWGQGTTVTVSS
VL: DIQMTQSPSSLSASVGDRVTITCKASENVGYVSWYQQKPGKSPKLLIYGASNRYTGVPDRFSGSGSGTDFTLTISSLQPEDFATYYCGQSYSYPLTFGSGTKLEIKR
For B5, in assay [2], the affinity, expressed as Kd, was 1.98 nM; the koff amounted to 0.000882 s⁻¹; the kon turned out to be 446000 M⁻¹ s⁻¹. In the assay with human DLL3 on cells [3], this molecule displayed an EC50 of 7.48 nM and an Emax of 1610.

B6: hu30L4H11 (antibody, human IgG1, kappa, V domains shown)
VH: EVRLVQFGAVVKKPGASVKVSCKASGYTFTDYYMNWVRQAPGQSLEWMGIINPYTGDTSYNQKFRGRVTLTVDKSSSTAYMELSSLTSEDTAVYYCARYHYGPHLEGYFDVWGQGTTVTVSS
VL: DIQMTQSPSSLSASVGDRVTITCKASENVGYVSWYQQKPGKAPKLLIYGASNRYTGVPSRFSGSGSGTDFTLTISSLQPEDFATYYCGQSYSYPLTFGQGTKLEIKR
In assay [2], B6 displayed a Kd of 2.84 nM, a koff of 0.00113 s⁻¹ and a kon of 398000 M⁻¹ s⁻¹. In the assay with human DLL3 on cells [3], this molecule returned an EC50 of 7.82 nM and an Emax of 1520.

B7: hu30L4H9 (antibody, human IgG1, kappa, V domains shown)
VH: EVRLVQSGAEVKKPGASVKVSCKASGYTFTDYYMNWVRQAPGQSLEWIGIINPYTGDTSYNQKFRGRATLTVDKSASTAYMELSSLRSEDTAVYYCARYHYGPHLEGYFDVWGQGTTVTVSS
VL: DIQMTQSPSSLSASVGDRVTITCKASENVGYVSWYQQKPGKAPKLLIYGASNRYTGVPSRFSGSGSGTDFTLTISSLQPEDFATYYCGQSYSYPLTFGQGTKLEIKR
In assay [2], B7 yielded an equilibrium dissociation constant (Kd) of 2.57 nM, a koff of 0.00101 s⁻¹ and a kon of 392000 M⁻¹ s⁻¹. Further, in the assay with human DLL3 on cells [3], the EC50 stood at 9.94 nM and the Emax was found to be 1370.

B8: hu30L1H8 (antibody, human IgG1, kappa, V domains shown)
VH: EVRLVQFGAVVKKPGASVKVSCKASGYTFTDYYMNWVRQAPGQSLEWMGIINPYTGDTSYNQKFRGRVTLTVDKSSSTAYMELSSLRSEDTAVYYCARYHYGPHLEGYFDVWGQGTTVTVSS
VL: DIVMTQSPDSLAVSLGERATINCKASENVGYVSWYQQKPGQPPKLLIYGASNRYTGVPDRFSGSGSGTDFTLTISSLQAEDVAVYYCGQSYSYPLTFGQGTKLEIKR
In assay [2], B8 showed a Kd of 2.57 nM, a koff of 0.00109 s⁻¹ and a kon of 425000 M⁻¹ s⁻¹. In the assay with human DLL3 on cells [3], this molecule returned an EC50 of 5.67 nM and an Emax of 1380.

B9: hu30L4H8 (antibody, human IgG1, kappa, V domains shown)
VH: EVRLVQFGAVVKKPGASVKVSCKASGYTFTDYYMNWVRQAPGQSLEWMGIINPYTGDTSYNQKFRGRVTLTVDKSSSTAYMELSSLRSEDTAVYYCARYHYGPHLEGYFDVWGQGTTVTVSS
VL: DIQMTQSPSSLSASVGDRVTITCKASENVGYVSWYQQKPGKAPKLLIYGASNRYTGVPSRFSGSGSGTDFTLTISSLQPEDFATYYCGQSYSYPLTFGQGTKLEIKR
In assay [2], B9 displayed a Kd of 2.74 nM, a koff of 0.000942 s⁻¹ and a kon of 343000 M⁻¹ s⁻¹. In the assay with human DLL3 on cells [3], this molecule had an EC50 of 5.3 nM and an Emax of 1420.

B10: HJ-3 (bispecific antibody)
chain 1: not shown
chain 2: DIQMTQSPSSVSASVGDRVTITCRASQDIANYLSWYQQKPGKSPKLLIYGTSNLEVGVPSRFSGSRSGTDFTLTISSLQPEDFATYYCLQDKEFPRTFGGGTKVEIKGGGGSSGAPRFLTRPLAFVVSVGKDATLSSQIVGNPTPQVSWEKDKQPVTAGARFRLAQDGDLYRLKILDLQLSDSGQYVSRARNAIGEAFACLGLQVDAEA
chain 3: EVQLVQSGAEVKKPGSSVKVSCKASGYTFSNYLIEWVRQAPGQGLEWIGVIDPGVGDTNYNENFKGRATLTADKSTSTAYIELSSLRSEDTAVYYCAREDNTGTAFDYWGQGTTVTVSSASTKGPSVFPLAPSSKSTSGGTAALGCLVKDYFPEPVTVSWNSGALTSGVHTFPAVLQSSGLYSLSSVVTVPSSSLGTQTYICNVNHKPSNTKVDKKVEPKSCDKTHTCPPCPAPEAAGGPSVFLFPPKPKDTLMISRTPEVTCVVVDVSHEDPEVKFNWYVDGVEVHNAKTKPREEQYNSTYRVVSVLTVLHQDWLNGKEYKCKVSNKALPAPIEKTISKAKGQPREPQVCTLPPSREEMTKNQVSLSCAVKGFYPSDIAVEWESNGQPENNYKTTPPVLDSDGSFFLVSKLTVDKSRWQQGNVFSCSVMHEALHNHYTQKSLSLSPGKDYKDDDDK
chain 4: SIVMTQTPLSLSVTPGQPASISCKASQSVSSDVTWYLQKPGQSPQLLIYYVSEHYTGVPDRFSGSGYGTDFTLKISRVEAEDVGVYYCQQHHRFPLTFGQGTKLEIKRTVAAPSVFIFPPSDEQLKSGTASVVCLLNNFYPREAKVQWKVDNALQSGNSQESVTEQDSKDSTYSLSSTLTLSKADYEKHKVYACEVTHQGLSSPVTKSFNRGEC
Take B10: the EC50 with hIL5 is 17.4 nM; in the assay with hTSLP, 3.23 nM.
